Test results published in article PMC12959268, “Mapping the nonribosomal specificity code through promiscuity-guided A-domain engineering” (Chemical Science, 2026).
Positions count from the first letter of the chain named. In names and notes the source's numbering stands.

B1: SrfAC (Bacillus subtilis subsp. subtilis str. 168) (protein)
chain: MSQFSKDQVQDMYYLSPMQEGMLFHAILNPGQSFYLEQITMKVKGSLNIKCLEESMNVIMDRYDVFRTVFIHEKVKRPVQVVLKKRQFHIEEIDLTHLTGSEQTAKINEYKEQDKIRGFDLTRDIPMRAAIFKKAEESFEWVWSYHHIILDGWCFGIVVQDLFKVYNALREQKPYSLPPVKPYKDYIKWLEKQDKQASLRYWREYLEGFEGQTTFAEQRKKQKDGYEPKELLFSLSEAETKAFTELAKSQHTTLSTALQAVWSVLISRYQQSGDLAFGTVVSGRPAEIKGVEHMVGLFINVVPRRVKLSEGITFNGLLKRLQEQSLQSEPHQYVPLYDIQSQADQPKLIDHIIVFENYPLQDAKNEESSENGFDMVDVHVFEKSNYDLNLMASPGDEMLIKLAYNENVFDEAFILRLKSQLLTAIQQLIQNPDQPVSTINLVDDREREFLLTGLNPPAQAHETKPLTYWFKEAVNANPDAPALTYSGQTLSYRELDEEANRIARRLQKHGAGKGSVVALYTKRSLELVIGILGVLKAGAAYLPVDPKLPEDRISYMLADSAAACLLTHQEMKEQAAELPYTGTTLFIDDQTRFEEQASDPATAIDPNDPAYIMYTSGTTGKPKGNITTHANIQGLVKHVDYMAFSDQDTFLSVSNYAFDAFTFDFYASMLNAARLIIADEHTLLDTERLTDLILQENVNVMFATTALFNLLTDAGEDWMKGLRCILFGGERASVPHVRKALRIMGPGKLINCYGPTEGTVFATAHVVHDLPDSISSLPIGKPISNASVYILNEQSQLQPFGAVGELCISGMGVSKGYVNRADLTKEKFIENPFKPGETLYRTGDLARWLPDGTIEYAGRIDDQVKIRGHRIELEEIEKQLQEYPGVKDAVVVADRHESGDASINAYLVNRTQLSAEDVKAHLKKQLPAYMVPQTFTFLDELPLTTNGKVNKRLLPKPDQDQLAEEWIGPRNEMEETIAQIWSEVLGRKQIGIHDDFFALGGHSLKAMTAASRIKKELGIDLPVKLLFEAPTIAGISAYLKNGGSDGLQDVTIMNQDQEQIIFAFPPVLGYGLMYQNLSSRLPSYKLCAFDFIEEEDRLDRYADLIQKLQPEGPLTLFGYSAGCSLAFEAAKKLEEQGRIVQRIIMVDSYKKQGVSDLDGRTVESDVEALMNVNRDNEALNSEAVKHGLKQKTHAFYSYYVNLISTGQVKADIDLLTSGADFDMPEWLASWEEATTGVYRVKRGFGTHAEMLQGETLDRNAEILLEFLNTQTVTVS
notes: full module C-A-T-TE, C-terminal His6 tag, holo form, from pTrc99a-srfAC in E. coli HM0079
B2: SrfAC (Bacillus subtilis subsp. subtilis str. 168; A660V/C752A/F702S) (protein)
chain: B1 chain with A660V, F702S, C752A
notes: as for B1

Columns and labels:
Experiment in all cases: MesG/hydroxylamine adenylation assay (pyrophosphate release)
Format in all cases: biochemical, Bacillus subtilis
Conditions in all cases: 5 mM ATP, 5 mM MgCl2, 150 mM hydroxylamine, pH 7.6, 30 °C
[1] = substrate: CC(C)C[C@H](N)C(=O)O
[2] = substrate: CSCC[C@H](N)C(=O)O
[3] = substrate: N[C@@H](Cc1ccccc1)C(=O)O

Protein | Km [1] | Km [2] | Km [3]
B1 | 13 ± 1 µM | – | –
B2 | 510 ± 50 µM | 4600 ± 900 µM | 1300 ± 100 µM
